Data from ChEMBL document CHEMBL4414660, “Effect of Modifier Structure on the Activation of Leukotriene A4 Hydrolase Aminopeptidase Activity” (J Med Chem, 2019).

How the values were obtained:
Conditions in all cases: Homo sapiens
[1] = compound: Nc1nc(-c2ccc(Cc3ccc(C(F)(F)F)cc3)cc2)cs1; test: (§1) Activation of N-terminal (His)6 and Xpress-tagged LTA4H (unknown origin) expressed in Escherichia coli BL21(DE3) cells assessed as increase in aminopeptidase activity by measuring Kcat/Km ratio for p-nitroanilide release at 0.5 uM using L-Alanine-p-nitroanilide incubated for 10 mins by UV plate reader based assay
[2] = compound: Cc1ccc(Cc2ccc(-c3csc(N)n3)cc2)cc1; test: as §1
[3] = compound: Nc1nc(-c2ccc(Cc3ccccc3)cc2)cs1; test: as §1
[4] = compound: COc1ccc(Cc2ccccc2)cc1; test: as §1
[5] = compound: COc1ccc(Cc2ccc(-c3csc(N)n3)cc2)cc1; test: as §1
[6] = compound: Nc1nc(-c2ccc(Cc3ccc(C(F)(F)F)cc3)cc2)cs1; test: as §1, with “0.1” for “0.5”
[7] = compound: Cc1ccc(Cc2ccc(-c3csc(N)n3)cc2)cc1; test: as §1, with “0.1” for “0.5”
[8] = compound: Nc1nc(-c2ccc(Cc3ccccc3)cc2)cs1; test: as §1, with “0.1” for “0.5”
[9] = compound: COc1ccc(Cc2ccccc2)cc1; test: as §1, with “0.1” for “0.5”
[10] = compound: COc1ccc(Cc2ccc(-c3csc(N)n3)cc2)cc1; test: as §1, with “0.1” for “0.5”
[11] = compound: Nc1nc(-c2ccc(Cc3ccc(C(F)(F)F)cc3)cc2)cs1; test: as §1, with “Kcat” for “Kcat/Km ratio”, “5” for “0.5”
[12] = compound: Cc1ccc(Cc2ccc(-c3csc(N)n3)cc2)cc1; test: as above
[13] = compound: Nc1nc(-c2ccc(Cc3ccccc3)cc2)cs1; test: as above
[14] = compound: COc1ccc(Cc2ccccc2)cc1; test: as above
[15] = compound: COc1ccc(Cc2ccc(-c3csc(N)n3)cc2)cc1; test: as above
[16] = compound: Nc1nc(-c2ccc(Cc3ccc(C(F)(F)F)cc3)cc2)cs1; test: as §1, with “1” for “0.5”
[17] = compound: Cc1ccc(Cc2ccc(-c3csc(N)n3)cc2)cc1; test: as §1, with “1” for “0.5”
[18] = compound: Nc1nc(-c2ccc(Cc3ccccc3)cc2)cs1; test: as §1, with “1” for “0.5”
[19] = compound: COc1ccc(Cc2ccccc2)cc1; test: as §1, with “1” for “0.5”
[20] = compound: COc1ccc(Cc2ccc(-c3csc(N)n3)cc2)cc1; test: as §1, with “1” for “0.5”
[21] = compound: Nc1nc(-c2ccc(Cc3ccc(C(F)(F)F)cc3)cc2)cs1; test: as §1, with “Km” for “Kcat/Km ratio”, “10” for “0.5”
[22] = compound: Cc1ccc(Cc2ccc(-c3csc(N)n3)cc2)cc1; test: as above
[23] = compound: Nc1nc(-c2ccc(Cc3ccccc3)cc2)cs1; test: as above
[24] = compound: COc1ccc(Cc2ccccc2)cc1; test: as above
[25] = compound: COc1ccc(Cc2ccc(-c3csc(N)n3)cc2)cc1; test: as above
[26] = compound: Nc1nc(-c2ccc(Cc3ccc(C(F)(F)F)cc3)cc2)cs1; test: as §1, with “Km” for “Kcat/Km ratio”, “1” for “0.5”
[27] = compound: Cc1ccc(Cc2ccc(-c3csc(N)n3)cc2)cc1; test: as above
[28] = compound: Nc1nc(-c2ccc(Cc3ccccc3)cc2)cs1; test: as above
[29] = compound: COc1ccc(Cc2ccccc2)cc1; test: as above
[30] = compound: COc1ccc(Cc2ccc(-c3csc(N)n3)cc2)cc1; test: as above
[31] = compound: Nc1nc(-c2ccc(Cc3ccc(C(F)(F)F)cc3)cc2)cs1; test: as §1, with “Km” for “Kcat/Km ratio”, “0.1” for “0.5”
[32] = compound: Cc1ccc(Cc2ccc(-c3csc(N)n3)cc2)cc1; test: as above
[33] = compound: Nc1nc(-c2ccc(Cc3ccccc3)cc2)cs1; test: as above
[34] = compound: COc1ccc(Cc2ccccc2)cc1; test: as above
[35] = compound: COc1ccc(Cc2ccc(-c3csc(N)n3)cc2)cc1; test: as above
[36] = compound: Nc1nc(-c2ccc(Cc3ccc(C(F)(F)F)cc3)cc2)cs1; test: as §1, with “Kcat” for “Kcat/Km ratio”
[37] = compound: Cc1ccc(Cc2ccc(-c3csc(N)n3)cc2)cc1; test: as §1, with “Kcat” for “Kcat/Km ratio”
[38] = compound: Nc1nc(-c2ccc(Cc3ccccc3)cc2)cs1; test: as §1, with “Kcat” for “Kcat/Km ratio”
[39] = compound: COc1ccc(Cc2ccccc2)cc1; test: as §1, with “Kcat” for “Kcat/Km ratio”
[40] = compound: COc1ccc(Cc2ccc(-c3csc(N)n3)cc2)cc1; test: as §1, with “Kcat” for “Kcat/Km ratio”
[41] = compound: Nc1nc(-c2ccc(Cc3ccc(C(F)(F)F)cc3)cc2)cs1; test: as §1, with “5” for “0.5”
[42] = compound: Cc1ccc(Cc2ccc(-c3csc(N)n3)cc2)cc1; test: as §1, with “5” for “0.5”
[43] = compound: Nc1nc(-c2ccc(Cc3ccccc3)cc2)cs1; test: as §1, with “5” for “0.5”
[44] = compound: COc1ccc(Cc2ccccc2)cc1; test: as §1, with “5” for “0.5”
[45] = compound: COc1ccc(Cc2ccc(-c3csc(N)n3)cc2)cc1; test: as §1, with “5” for “0.5”
[46] = compound: Nc1nc(-c2ccc(Cc3ccc(C(F)(F)F)cc3)cc2)cs1; test: as §1, with “Km” for “Kcat/Km ratio”
[47] = compound: Cc1ccc(Cc2ccc(-c3csc(N)n3)cc2)cc1; test: as §1, with “Km” for “Kcat/Km ratio”
[48] = compound: Nc1nc(-c2ccc(Cc3ccccc3)cc2)cs1; test: as §1, with “Km” for “Kcat/Km ratio”
[49] = compound: COc1ccc(Cc2ccccc2)cc1; test: as §1, with “Km” for “Kcat/Km ratio”
[50] = compound: COc1ccc(Cc2ccc(-c3csc(N)n3)cc2)cc1; test: as §1, with “Km” for “Kcat/Km ratio”
[51] = compound: Nc1nc(-c2ccc(Cc3ccc(C(F)(F)F)cc3)cc2)cs1; test: as §1, with “Km” for “Kcat/Km ratio”, “5” for “0.5”
[52] = compound: Cc1ccc(Cc2ccc(-c3csc(N)n3)cc2)cc1; test: as above
[53] = compound: Nc1nc(-c2ccc(Cc3ccccc3)cc2)cs1; test: as above
[54] = compound: COc1ccc(Cc2ccccc2)cc1; test: as above
[55] = compound: COc1ccc(Cc2ccc(-c3csc(N)n3)cc2)cc1; test: as above
[56] = compound: Nc1nc(-c2ccc(Cc3ccc(C(F)(F)F)cc3)cc2)cs1; test: as §1, with “Kcat” for “Kcat/Km ratio”, “0.1” for “0.5”
[57] = compound: Cc1ccc(Cc2ccc(-c3csc(N)n3)cc2)cc1; test: as above
[58] = compound: Nc1nc(-c2ccc(Cc3ccccc3)cc2)cs1; test: as above
[59] = compound: COc1ccc(Cc2ccccc2)cc1; test: as above
[60] = compound: COc1ccc(Cc2ccc(-c3csc(N)n3)cc2)cc1; test: as above
[61] = compound: Nc1nc(-c2ccc(Cc3ccc(C(F)(F)F)cc3)cc2)cs1; test: as §1, with “Kcat” for “Kcat/Km ratio”, “10” for “0.5”
[62] = compound: Cc1ccc(Cc2ccc(-c3csc(N)n3)cc2)cc1; test: as above
[63] = compound: Nc1nc(-c2ccc(Cc3ccccc3)cc2)cs1; test: as above
[64] = compound: COc1ccc(Cc2ccccc2)cc1; test: as above
[65] = compound: COc1ccc(Cc2ccc(-c3csc(N)n3)cc2)cc1; test: as above
[66] = compound: Nc1nc(-c2ccc(Cc3ccc(C(F)(F)F)cc3)cc2)cs1; test: as §1, with “10” for “0.5”
[67] = compound: Cc1ccc(Cc2ccc(-c3csc(N)n3)cc2)cc1; test: as §1, with “10” for “0.5”
[68] = compound: Nc1nc(-c2ccc(Cc3ccccc3)cc2)cs1; test: as §1, with “10” for “0.5”
[69] = compound: COc1ccc(Cc2ccccc2)cc1; test: as §1, with “10” for “0.5”
[70] = compound: COc1ccc(Cc2ccc(-c3csc(N)n3)cc2)cc1; test: as §1, with “10” for “0.5”
[71] = compound: Nc1nc(-c2ccc(Cc3ccc(C(F)(F)F)cc3)cc2)cs1; test: as §1, with “Kcat” for “Kcat/Km ratio”, “1” for “0.5”
[72] = compound: Cc1ccc(Cc2ccc(-c3csc(N)n3)cc2)cc1; test: as above
[73] = compound: Nc1nc(-c2ccc(Cc3ccccc3)cc2)cs1; test: as above
[74] = compound: COc1ccc(Cc2ccccc2)cc1; test: as above
[75] = compound: COc1ccc(Cc2ccc(-c3csc(N)n3)cc2)cc1; test: as above

B1: Leukotriene A-4 hydrolase (Homo sapiens), P09960 (protein)
chain: MPEIVDTCSLASPASVCRTKHLHLRCSVDFTRRTLTGTAALTVQSQEDNLRSLVLDTKDLTIEKVVINGQEVKYALGERQSYKGSPMEISLPIALSKNQEIVIEISFETSPKSSALQWLTPEQTSGKEHPYLFSQCQAIHCRAILPCQDTPSVKLTYTAEVSVPKELVALMSAIRDGETPDPEDPSRKIYKFIQKVPIPCYLIALVVGALESRQIGPRTLVWSEKEQVEKSAYEFSETESMLKIAEDLGGPYVWGQYDLLVLPPSFPYGGMENPCLTFVTPTLLAGDKSLSNVIAHEISHSWTGNLVTNKTWDHFWLNEGHTVYLERHICGRLFGEKFRHFNALGGWGELQNSVKTFGETHPFTKLVVDLTDIDPDVAYSSVPYEKGFALLFYLEQLLGGPEIFLGFLKAYVEKFSYKSITTDDWKDFLYSYFKDKVDVLNQVDWNAWLYSPGLPPIKPNYDMTLTNACIALSQRWITAKEDDLNSFNATDLKDLSSHQLNEFLAQTLQRAPLPLGHIKRMQEVYNFNAINNSEIRFRWLRLCIQSKWEDAIPLALKMATEQGRMKFTRPLFKDLAAFDKSHDQAVRTYQEHKASMHPVTAMLVGKDLKVD
kcat/Km [1]: 1210 M⁻¹ s⁻¹
kcat/Km [2]: 10100 M⁻¹ s⁻¹
kcat/Km [3]: 7070 M⁻¹ s⁻¹
kcat/Km [4]: 6060 M⁻¹ s⁻¹
kcat/Km [5]: 6180 M⁻¹ s⁻¹
kcat/Km [6]: 840 M⁻¹ s⁻¹
kcat/Km [7]: 6380 M⁻¹ s⁻¹
kcat/Km [8]: 4440 M⁻¹ s⁻¹
kcat/Km [9]: 3070 M⁻¹ s⁻¹
kcat/Km [10]: 4870 M⁻¹ s⁻¹
kcat [11]: 20.9 s⁻¹
kcat [12]: 34.3 s⁻¹
kcat [13]: 42.2 s⁻¹
kcat [14]: 23.9 s⁻¹
kcat [15]: 45.2 s⁻¹
kcat/Km [16]: 1390 M⁻¹ s⁻¹
kcat/Km [17]: 11300 M⁻¹ s⁻¹
kcat/Km [18]: 7890 M⁻¹ s⁻¹
kcat/Km [19]: 8460 M⁻¹ s⁻¹
kcat/Km [20]: 6740 M⁻¹ s⁻¹
Km [21]: 10.1 mM
Km [22]: 3.12 mM
Km [23]: 4.03 mM
Km [24]: 1.75 mM
Km [25]: 6.6 mM
Km [26]: 5.94 mM
Km [27]: 2.87 mM
Km [28]: 4.04 mM
Km [29]: 1.03 mM
Km [30]: 4.75 mM
Km [31]: 2.27 mM
Km [32]: 3.3 mM
Km [33]: 2.17 mM
Km [34]: 0.98 mM
Km [35]: 2.05 mM
kcat [36]: 5.09 s⁻¹
kcat [37]: 31.3 s⁻¹
kcat [38]: 21.1 s⁻¹
kcat [39]: 5.54 s⁻¹
kcat [40]: 25.9 s⁻¹
kcat/Km [41]: 2030 M⁻¹ s⁻¹
kcat/Km [42]: 11700 M⁻¹ s⁻¹
kcat/Km [43]: 8940 M⁻¹ s⁻¹
kcat/Km [44]: 15700 M⁻¹ s⁻¹
kcat/Km [45]: 6680 M⁻¹ s⁻¹
Km [46]: 4.21 mM
Km [47]: 3.11 mM
Km [48]: 2.99 mM
Km [49]: 0.91 mM
Km [50]: 4.18 mM
Km [51]: 10.3 mM
Km [52]: 2.92 mM
Km [53]: 4.72 mM
Km [54]: 1.52 mM
Km [55]: 6.77 mM
kcat [56]: 1.91 s⁻¹
kcat [57]: 21.1 s⁻¹
kcat [58]: 9.63 s⁻¹
kcat [59]: 3.01 s⁻¹
kcat [60]: 9.98 s⁻¹
kcat [61]: 23.2 s⁻¹
kcat [62]: 35.6 s⁻¹
kcat [63]: 39.6 s⁻¹
kcat [64]: 30.3 s⁻¹
kcat [65]: 44.1 s⁻¹
kcat/Km [66]: 2300 M⁻¹ s⁻¹
kcat/Km [67]: 11400 M⁻¹ s⁻¹
kcat/Km [68]: 9810 M⁻¹ s⁻¹
kcat/Km [69]: 17300 M⁻¹ s⁻¹
kcat/Km [70]: 6680 M⁻¹ s⁻¹
kcat [71]: 8.23 s⁻¹
kcat [72]: 32.5 s⁻¹
kcat [73]: 31.9 s⁻¹
kcat [74]: 8.68 s⁻¹
kcat [75]: 32 s⁻¹
